In US20120316071A1 one finds ECL signal data, which are given here for five substances.

For assay [1], the target named is rHuman CD44/Fc Chimera, CF (R&D Systems Cat#3660-CD) (human) (UniProt P16070). As to the kind of experiment: MSD Multispot ECL, antigen spotted on plate, Fab in solution; blank spot of the row 240.
The target of assay [2] is rHuman ErbB2/Fc Chimera, CF (R&D Systems Cat#1129-ER) (human) (UniProt P04626). The description is as above.
The target in assay [3] is rHuman IGF-1 sR, (IGF-1 sR), CF (R&D Systems Cat#391-GR) (human) (UniProt P08069). The assay is described as above.
For assay [4], the target named is rHuman CD44/Fc Chimera, CF (R&D Systems Cat#3660-CD) (human) (UniProt P16070). As to the kind of experiment: MSD Multispot ECL, antigen spotted on plate, Fab in solution; blank spot of the row 424.
Assay [5] concerns the target rHuman ErbB2/Fc Chimera, CF (R&D Systems Cat#1129-ER) (human) (UniProt P04626). The description is as above.
In assay [6] the target is rHuman IGF-1 sR, (IGF-1 sR), CF (R&D Systems Cat#391-GR) (human) (UniProt P08069). Described as above.
The target of assay [7] is rHuman CD44/Fc Chimera, CF (R&D Systems Cat#3660-CD) (human) (UniProt P16070). As to the kind of experiment: ECL (MSD) multispot binding assay, antigen spotted on the plate, Fab in solution; blank spot of this well 213.
Assay [8] has as its target rHuman EGF R/Fc Chimera, CF (R&D Systems Cat#344-ER) (human) (UniProt P00533). The description is as above.
The target of assay [9] is rHuman ErbB2/Fc Chimera, CF (R&D Systems Cat#1129-ER) (human) (UniProt P04626). Described as above.
Assay [10] deals with rHuman HGF R/c-MET/Fc Chimera, CF (R&D Systems Cat#358-MT/CF) (human) (UniProt P08581). The assay is described as above.
Assay [11] concerns the target rHuman IGF-1 sR, CF (R&D Systems Cat#391-GR) (human) (UniProt P08069). Described as above.
For assay [12], the target named is rHuman Notch-1/Fc Chimera, CF (R&D Systems Cat#3647-TK) (human) (UniProt P46531). The description is as above.
The target in assay [13] is rHuman CD44/Fc Chimera, CF (R&D Systems Cat#3660-CD) (human) (UniProt P16070). Briefly: ECL multispot (MSD) binding assay, antigen spotted on plate, Fab in solution; blank spot 321.
Assay [14] has as its target rHuman EGF R/Fc Chimera, CF (R&D Systems Cat#344-ER) (human) (UniProt P00533). Described as above.
The target of assay [15] is rHuman ErbB2/Fc Chimera, CF (R&D Systems Cat#1129-ER) (human) (UniProt P04626). The assay is described as above.
Assay [16] deals with rHuman HGF R/c-MET/Fc Chimera, CF (R&D Systems Cat#358-MT/CF) (human) (UniProt P08581). The assay is described as above.
Assay [17] has as its target rHuman IGF-1 sR, CF (R&D Systems Cat#391-GR) (human) (UniProt P08069). Described as above.
The target in assay [18] is rHuman Notch-1/Fc Chimera, CF (R&D Systems Cat#3647-TK) (human) (UniProt P46531). The assay is described as above.
The target in assay [19] is rHuman P-Cadherin/Fc Chimera, CF (R&D Systems Cat#861-PC) (human) (UniProt P22223). The description is as above.
For assay [20], the target named is rHuman CD44/Fc Chimera, CF (R&D Systems Cat#3660-CD) (human) (UniProt P16070). Briefly: ECL multispot (MSD) binding assay, antigen spotted on plate, Fab in solution; blank spot 237.
Assay [21] concerns the target rHuman EGF R/Fc Chimera, CF (R&D Systems Cat#344-ER) (human) (UniProt P00533). The assay is described as above.
The target in assay [22] is rHuman ErbB2/Fc Chimera, CF (R&D Systems Cat#1129-ER) (human) (UniProt P04626). Described as above.
Assay [23] has as its target rHuman Erythropoietin R/Fc Chimera, CF (R&D Systems Cat#963-ER) (human) (UniProt P19235). Described as above.
The target of assay [24] is rHuman HGF R/c-MET/Fc Chimera, CF (R&D Systems Cat#358-MT/CF) (human) (UniProt P08581). Described as above.
Assay [25] deals with rHuman IGF-1 sR, CF (R&D Systems Cat#391-GR) (human) (UniProt P08069). The assay is described as above.
In assay [26] the target is rHuman Notch-1/Fc Chimera, CF (R&D Systems Cat#3647-TK) (human) (UniProt P46531). Described as above.
The target in assay [27] is rHuman P-Cadherin/Fc Chimera, CF (R&D Systems Cat#861-PC) (human) (UniProt P22223). Described as above.
The target in assay [28] is rHuman CD44/Fc Chimera, CF (R&D Systems Cat#3660-CD) (human) (UniProt P16070). As to the kind of experiment: ECL multispot (MSD) binding assay, antigen spotted on plate, Fab in solution; blank spot 215.
Assay [29] concerns the target rHuman EGF R/Fc Chimera, CF (R&D Systems Cat#344-ER) (human) (UniProt P00533). Described as above.
Assay [30] has as its target rHuman ErbB2/Fc Chimera, CF (R&D Systems Cat#1129-ER) (human) (UniProt P04626). Described as above.
Assay [31] deals with rHuman Erythropoietin R/Fc Chimera, CF (R&D Systems Cat#963-ER) (human) (UniProt P19235). The assay is described as above.
The target of assay [32] is rHuman HGF R/c-MET/Fc Chimera, CF (R&D Systems Cat#358-MT/CF) (human) (UniProt P08581). Described as above.
Assay [33] deals with rHuman IGF-1 sR, CF (R&D Systems Cat#391-GR) (human) (UniProt P08069). Described as above.
Assay [34] concerns the target rHuman Notch-1/Fc Chimera, CF (R&D Systems Cat#3647-TK) (human) (UniProt P46531). The description is as above.
Assay [35] has as its target rHuman P-Cadherin/Fc Chimera, CF (R&D Systems Cat#861-PC) (human) (UniProt P22223). The description is as above.
Assay [36] concerns the target rHuman CD44/Fc Chimera, CF (R&D Systems Cat#3660-CD) (human) (UniProt P16070). Briefly: ECL multispot (MSD) binding assay, antigen spotted on plate, Fab in solution; blank spot 277.
Assay [37] addresses rHuman EGF R/Fc Chimera, CF (R&D Systems Cat#344-ER) (human) (UniProt P00533). The description is as above.
Assay [38] deals with rHuman ErbB2/Fc Chimera, CF (R&D Systems Cat#1129-ER) (human) (UniProt P04626). Described as above.
The target of assay [39] is rHuman Erythropoietin R/Fc Chimera, CF (R&D Systems Cat#963-ER) (human) (UniProt P19235). Described as above.
The target of assay [40] is rHuman HGF R/c-MET/Fc Chimera, CF (R&D Systems Cat#358-MT/CF) (human) (UniProt P08581). The assay is described as above.
Assay [41] addresses rHuman IGF-1 sR, CF (R&D Systems Cat#391-GR) (human) (UniProt P08069). Described as above.
Assay [42] concerns the target rHuman Notch-1/Fc Chimera, CF (R&D Systems Cat#3647-TK) (human) (UniProt P46531). The assay is described as above.
Assay [43] has as its target rHuman P-Cadherin/Fc Chimera, CF (R&D Systems Cat#861-PC) (human) (UniProt P22223). The description is as above.

For “Fab VH5-51_IGHD5-18*01>3_IGHJ4*01 G100K/G104T (KT) & V3-4_IGLJ1*01”, the ECL signal in assay [1] turned out to be 633; in assay [2] it was 1070; in assay [3] it was 964; in assay [4] it was 579; in assay [5], 1100; in assay [6], 877. For the same substance, the ECL signal turned out to be 540 in assay [7]; 768 in assay [8]; 1100 in assay [9]; 867 in assay [10]; 781 in assay [11]; 437 in [12].

In the case of “Fab VH5-51_IGHD5-18*01>3_IGHJ4*01 G100K/G104T D57A & V3-4_IGLJ1*01”, the ECL signal in assay [13] was 600; in assay [14], 915; in [15] it was 1200; in assay [16], 1130; in assay [17], 982; in assay [18] it was 523. In assay [19], this substance displayed an ECL signal of 365.

“Fab VH5-51_IGHD5-18*01>3_IGHJ4*01 G100K/G104T I50A & V3-4_IGLJ1*01”: the ECL signal in [20] was determined as 632; in assay [21], 794; in [22], 925; in [23] it was 523; in assay [24], 822; in assay [25], 785. Also, the results for the ECL signal in [26] and in [27] were 443 and 343, respectively.

Turning to “Fab VH5-51_IGHD5-18*01>3_IGHJ4*01 G100K/G104T I51A & V3-4_IGLJ1*01”, the ECL signal in assay [28] stood at 517; in assay [29], 803; in [30], 1090; in [31], 497; in assay [32], 875; in [33], 828. Also, the ECL signal in [34] is 612; in assay [35], 432.

With “Fab VH5-51_IGHD5-18*01>3_IGHJ4*01 G100K/G104T Y52A & V3-4_IGLJ1*01”, the ECL signal turned out to be 591 in assay [36]; 745 in assay [37]; 989 in assay [38]; 584 in [39]; 803 in assay [40]; 827 in [41]. Moreover, the ECL signal in assay [42] is 566; in assay [43], 334.
